Drawing on patent US20260250421A1, this text covers MFI for one substance.

The target of experiment [1] is human PTK7 on human cancer cell lines (human) (UniProt Q13308). Briefly: flow cytometry, HCT116 cells, isotype control.
The target is the same in experiment [2]. Briefly: flow cytometry, A-431 cells, isotype control. On the technique in general: In flow cytometry, cells or beads pass a laser one at a time.
The target is the same in experiment [3]. Briefly: flow cytometry, BT-20 cells, isotype control.
The target in experiment [4] is dog PTK7 on dog cancer cell lines (dog). Description: flow cytometry, CMT-U27 dog cells, isotype control.
Experiment [5] has as its target human PTK7 on human cancer cell lines (human) (UniProt Q13308). Description: flow cytometry, NCI-H358 cells, isotype control.
The target of experiment [6] is dog PTK7 on dog cancer cell lines (dog). Briefly: flow cytometry, D-17 dog cells, isotype control.
Experiment [7] concerns the target human PTK7 on human cancer cell lines (human) (UniProt Q13308). Description: flow cytometry, SK-OV-3 cells, isotype control.
For experiment [8] the target is unchanged. Briefly: flow cytometry, NCI-N87 cells, isotype control.
The target is the same in experiment [9]. Description: flow cytometry, HCC1954 cells, isotype control.
Experiment [10] has the same target. Briefly: flow cytometry, PC-3 cells, isotype control.
For experiment [11] the target is unchanged. Description: flow cytometry, NCI-H292 cells, isotype control.
For experiment [12] the target is unchanged. Briefly: flow cytometry, NCI-H226 cells, isotype control.
Experiment [13] shares this target. Briefly: flow cytometry, NCI-H520 cells, isotype control.

Chain of human PTK7 on human cancer cell lines (human) (Q13308 31-1070 limits assumed): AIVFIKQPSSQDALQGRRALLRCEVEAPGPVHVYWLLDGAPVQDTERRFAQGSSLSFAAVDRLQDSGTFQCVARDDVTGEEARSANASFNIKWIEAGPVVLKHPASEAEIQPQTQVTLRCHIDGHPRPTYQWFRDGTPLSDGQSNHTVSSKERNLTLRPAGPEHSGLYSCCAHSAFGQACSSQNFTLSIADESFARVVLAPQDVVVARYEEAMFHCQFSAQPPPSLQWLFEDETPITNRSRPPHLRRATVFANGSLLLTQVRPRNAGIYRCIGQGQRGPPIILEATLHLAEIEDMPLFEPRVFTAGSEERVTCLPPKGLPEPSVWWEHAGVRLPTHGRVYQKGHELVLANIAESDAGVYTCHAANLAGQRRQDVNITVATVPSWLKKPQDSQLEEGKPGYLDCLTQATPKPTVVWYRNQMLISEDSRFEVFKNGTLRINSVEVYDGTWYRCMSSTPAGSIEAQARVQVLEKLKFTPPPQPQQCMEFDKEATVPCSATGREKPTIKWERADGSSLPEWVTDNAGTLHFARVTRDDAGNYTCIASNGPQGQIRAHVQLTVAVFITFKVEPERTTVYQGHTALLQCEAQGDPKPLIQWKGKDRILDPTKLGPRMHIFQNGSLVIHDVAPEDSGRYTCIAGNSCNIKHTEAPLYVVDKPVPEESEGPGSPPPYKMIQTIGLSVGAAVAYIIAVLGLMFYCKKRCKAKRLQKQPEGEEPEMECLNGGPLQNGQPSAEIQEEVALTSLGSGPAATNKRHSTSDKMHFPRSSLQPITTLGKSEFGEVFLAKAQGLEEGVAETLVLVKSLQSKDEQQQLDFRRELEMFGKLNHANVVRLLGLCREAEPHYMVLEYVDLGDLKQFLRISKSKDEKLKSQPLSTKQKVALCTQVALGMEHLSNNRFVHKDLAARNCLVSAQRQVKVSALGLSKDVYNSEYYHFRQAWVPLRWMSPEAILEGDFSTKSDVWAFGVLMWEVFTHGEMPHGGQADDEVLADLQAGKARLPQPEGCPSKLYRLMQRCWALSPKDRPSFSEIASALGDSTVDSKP

Consider Human IgG1 (ISO control) (antibody), for which the MFI in experiment [1] came to 3110; in experiment [2], 4630; in [3] it was 5920; in [4], 1650; in experiment [5] it was 3360; in experiment [6] it was 3520. For the same substance, the MFI in experiment [7] was found to be 3860; in experiment [8], 2850; in experiment [9] it was 6340; in experiment [10], 3690; in [11] it was 2230; in [12], 9840. The substance also gave an MFI in experiment [13] of 2420.
